Patent publication US20220002403A1 (Merck Sharp & Dohme, published 2022)
Values belong to the binder of their own block, whether it stands above or below them.

Columns and labels:
[1] = biological target: T1, human ILT4 expressed on CHO cells (CHO/ILT4 cell line) (human, UniProt Q8N423 22-597); assay: cell-based ligand blocking assay: CHO/ILT4 cells pre-incubated with antibody (1-20,000 ng/mL), then biotinylated HLA-G/Fc
T1 construct: also called CHO/ILT4+ cells; CHO-expressed ILT4

[2] = biological target: T2, recombinant human ILT4 antigen chemically coupled to Luminex beads (ILT4/Fc) (human, UniProt Q8N423 22-460); assay: Luminex ligand blocking assay: bead-coupled ILT4 pre-incubated with antibody (0.5-9,000 ng/mL), then 50 nM biotinylated HLA-G/Fc
T2 construct: also called Luminex bead-coupled ILT4/Fc; not shown: Fc part
T2 sequence (Q8N423 other isoform, or with tags, fused parts or gaps): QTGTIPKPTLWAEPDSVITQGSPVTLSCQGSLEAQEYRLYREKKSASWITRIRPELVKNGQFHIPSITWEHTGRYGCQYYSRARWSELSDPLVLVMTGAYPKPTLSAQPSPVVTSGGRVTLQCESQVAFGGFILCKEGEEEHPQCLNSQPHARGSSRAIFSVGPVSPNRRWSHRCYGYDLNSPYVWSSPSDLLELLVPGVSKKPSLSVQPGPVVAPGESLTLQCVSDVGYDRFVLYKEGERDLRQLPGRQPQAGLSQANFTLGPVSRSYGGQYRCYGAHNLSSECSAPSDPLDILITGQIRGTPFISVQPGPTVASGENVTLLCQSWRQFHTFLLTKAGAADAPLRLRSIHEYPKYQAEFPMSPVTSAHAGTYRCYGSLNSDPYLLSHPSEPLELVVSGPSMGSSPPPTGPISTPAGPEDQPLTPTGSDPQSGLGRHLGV

[3] = biological target: T3, human ILT7 expressed on mouse 3A9 T cells (human, UniProt P59901 24-499); assay: flow cytometry on 3A9 T cell transfectants
T3 construct: whole, on cells
T3 sequence (P59901 24-499): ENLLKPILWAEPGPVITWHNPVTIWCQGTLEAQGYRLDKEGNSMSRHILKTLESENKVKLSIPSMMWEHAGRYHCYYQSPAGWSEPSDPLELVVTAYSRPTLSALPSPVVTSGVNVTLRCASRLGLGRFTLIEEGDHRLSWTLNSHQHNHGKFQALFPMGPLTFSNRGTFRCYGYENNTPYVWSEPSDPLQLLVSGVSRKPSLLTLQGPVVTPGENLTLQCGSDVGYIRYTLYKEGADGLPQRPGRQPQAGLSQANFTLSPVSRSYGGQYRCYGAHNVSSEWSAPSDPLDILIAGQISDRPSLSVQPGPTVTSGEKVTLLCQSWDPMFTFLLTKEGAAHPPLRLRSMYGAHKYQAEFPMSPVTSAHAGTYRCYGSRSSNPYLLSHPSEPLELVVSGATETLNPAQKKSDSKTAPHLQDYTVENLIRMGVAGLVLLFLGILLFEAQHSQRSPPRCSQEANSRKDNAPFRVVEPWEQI

[4] = biological target: T4, human LILRA2 expressed on mouse 3A9 T cells (human, UniProt Q8N149 24-483); assay: flow cytometry on 3A9 T cell transfectants
T4 construct: whole, on cells
T4 sequence (Q8N149 24-483): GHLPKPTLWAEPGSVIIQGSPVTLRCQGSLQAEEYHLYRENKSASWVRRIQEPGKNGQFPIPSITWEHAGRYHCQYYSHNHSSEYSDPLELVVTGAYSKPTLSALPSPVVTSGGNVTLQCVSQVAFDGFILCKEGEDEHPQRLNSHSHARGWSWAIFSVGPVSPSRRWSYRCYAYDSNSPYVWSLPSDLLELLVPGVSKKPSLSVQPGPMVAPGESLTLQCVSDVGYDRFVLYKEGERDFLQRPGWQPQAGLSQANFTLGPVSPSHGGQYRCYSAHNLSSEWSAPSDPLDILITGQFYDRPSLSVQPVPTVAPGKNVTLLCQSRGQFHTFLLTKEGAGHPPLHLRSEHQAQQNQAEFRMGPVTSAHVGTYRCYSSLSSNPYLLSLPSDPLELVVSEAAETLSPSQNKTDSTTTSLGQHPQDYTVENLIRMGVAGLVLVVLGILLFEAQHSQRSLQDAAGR

[5] = biological target: T5, human ILT2 expressed on mouse 3A9 T cells (human, UniProt Q8NHL6 24-650); assay: flow cytometry on 3A9 T cell transfectants
T5 construct: whole, on cells
T5 sequence (Q8NHL6 24-650): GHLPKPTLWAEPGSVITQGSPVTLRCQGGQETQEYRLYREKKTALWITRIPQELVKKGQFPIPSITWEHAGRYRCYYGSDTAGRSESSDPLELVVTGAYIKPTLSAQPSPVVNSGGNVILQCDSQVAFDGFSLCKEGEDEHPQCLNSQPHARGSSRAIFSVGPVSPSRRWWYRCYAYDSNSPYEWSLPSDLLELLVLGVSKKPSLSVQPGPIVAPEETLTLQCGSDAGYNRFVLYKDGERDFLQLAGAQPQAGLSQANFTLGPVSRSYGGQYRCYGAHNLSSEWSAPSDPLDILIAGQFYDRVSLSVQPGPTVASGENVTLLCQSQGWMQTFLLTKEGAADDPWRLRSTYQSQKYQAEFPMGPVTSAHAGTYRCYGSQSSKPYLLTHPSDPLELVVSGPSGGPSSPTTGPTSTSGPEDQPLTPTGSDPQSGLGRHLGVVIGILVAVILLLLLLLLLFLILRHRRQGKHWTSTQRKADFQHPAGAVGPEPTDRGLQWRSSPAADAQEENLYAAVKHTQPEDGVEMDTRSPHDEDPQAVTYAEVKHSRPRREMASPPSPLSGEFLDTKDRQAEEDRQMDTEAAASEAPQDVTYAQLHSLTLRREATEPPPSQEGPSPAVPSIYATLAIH

[6] = biological target: T6, human ILT8 expressed on mouse 3A9 T cells (human, UniProt Q6PI73 24-481); assay: flow cytometry on 3A9 T cell transfectants
T6 construct: whole, on cells
T6 sequence (Q6PI73 24-481): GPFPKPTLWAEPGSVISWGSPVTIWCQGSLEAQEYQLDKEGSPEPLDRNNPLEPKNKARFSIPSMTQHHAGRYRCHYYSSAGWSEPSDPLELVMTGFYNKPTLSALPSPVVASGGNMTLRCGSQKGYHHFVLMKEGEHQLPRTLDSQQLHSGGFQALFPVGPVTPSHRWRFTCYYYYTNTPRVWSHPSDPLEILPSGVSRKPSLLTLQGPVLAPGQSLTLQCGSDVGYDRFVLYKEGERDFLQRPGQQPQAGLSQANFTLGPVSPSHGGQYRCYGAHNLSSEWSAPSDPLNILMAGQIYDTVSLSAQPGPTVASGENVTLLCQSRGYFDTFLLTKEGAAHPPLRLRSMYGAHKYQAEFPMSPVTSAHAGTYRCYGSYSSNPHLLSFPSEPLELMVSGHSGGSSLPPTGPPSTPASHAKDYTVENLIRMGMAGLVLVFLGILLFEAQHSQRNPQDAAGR

[7] = biological target: T7, human LILRB5 expressed on mouse 3A9 T cells (human, UniProt O75023 24-590); assay: flow cytometry on 3A9 T cell transfectants
T7 construct: whole, on cells
T7 sequence (O75023 24-590): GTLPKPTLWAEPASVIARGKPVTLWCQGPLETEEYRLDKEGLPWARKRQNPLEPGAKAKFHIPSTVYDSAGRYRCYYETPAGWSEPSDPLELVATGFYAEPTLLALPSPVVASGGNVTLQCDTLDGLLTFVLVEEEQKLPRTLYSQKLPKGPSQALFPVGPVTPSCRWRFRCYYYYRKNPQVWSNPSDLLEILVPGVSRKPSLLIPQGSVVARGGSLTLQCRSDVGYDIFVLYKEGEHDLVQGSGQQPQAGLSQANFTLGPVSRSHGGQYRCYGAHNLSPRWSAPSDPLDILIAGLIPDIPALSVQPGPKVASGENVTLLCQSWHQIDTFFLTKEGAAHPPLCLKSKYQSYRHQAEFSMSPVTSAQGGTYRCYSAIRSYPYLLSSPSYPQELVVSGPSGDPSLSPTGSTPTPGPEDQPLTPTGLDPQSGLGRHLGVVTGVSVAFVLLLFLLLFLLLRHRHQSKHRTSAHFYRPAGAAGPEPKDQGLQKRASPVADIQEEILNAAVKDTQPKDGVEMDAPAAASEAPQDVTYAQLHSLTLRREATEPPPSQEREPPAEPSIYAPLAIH

[8] = biological target: T8, human LILRA1 expressed on mouse 3A9 T cells (human, UniProt O75019 17-489); assay: flow cytometry on 3A9 T cell transfectants
T8 construct: whole, on cells
T8 sequence (O75019 17-489): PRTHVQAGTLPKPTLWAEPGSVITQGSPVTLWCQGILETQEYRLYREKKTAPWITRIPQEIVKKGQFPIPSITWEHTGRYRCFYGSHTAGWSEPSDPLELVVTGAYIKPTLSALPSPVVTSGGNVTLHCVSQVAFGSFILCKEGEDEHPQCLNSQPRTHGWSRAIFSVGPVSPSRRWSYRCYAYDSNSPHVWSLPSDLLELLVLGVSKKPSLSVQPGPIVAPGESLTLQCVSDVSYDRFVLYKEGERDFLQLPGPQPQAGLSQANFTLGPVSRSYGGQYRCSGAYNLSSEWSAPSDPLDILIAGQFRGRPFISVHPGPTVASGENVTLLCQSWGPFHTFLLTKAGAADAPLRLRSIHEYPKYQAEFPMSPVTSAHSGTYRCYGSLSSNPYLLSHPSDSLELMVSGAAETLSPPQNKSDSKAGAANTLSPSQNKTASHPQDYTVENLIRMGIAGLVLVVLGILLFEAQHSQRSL

[9] = biological target: T9, human ILT11 expressed on mouse 3A9 T cells (human, UniProt A6NI73 42-299); assay: flow cytometry on 3A9 T cell transfectants
T9 construct: whole, on cells
T9 sequence (A6NI73 42-299): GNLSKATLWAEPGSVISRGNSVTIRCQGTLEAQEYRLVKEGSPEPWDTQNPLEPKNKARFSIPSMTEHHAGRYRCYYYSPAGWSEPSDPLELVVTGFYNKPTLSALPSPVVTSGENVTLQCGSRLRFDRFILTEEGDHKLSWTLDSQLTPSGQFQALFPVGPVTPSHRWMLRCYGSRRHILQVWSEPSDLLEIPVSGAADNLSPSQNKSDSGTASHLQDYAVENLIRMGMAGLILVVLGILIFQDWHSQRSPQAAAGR

[10] = biological target: T10, human ILT5 expressed on mouse 3A9 T cells (human, UniProt O75022 24-631); assay: flow cytometry on 3A9 T cell transfectants
T10 construct: whole, on cells

[11] = biological target: T11, ILT4-His (recombinant extracellular domain of human ILT4 fused to a poly-Histidine tag) (human, UniProt Q8N423 22-460); assay: SPR (Biacore T200): mAb captured by human Fc capture on CM5 chip, ILT4-His titrated; 1:1 model; n=2
T11 construct: also called polyhistidine-tagged human ILT4; recombinant histidine tagged, extracellular domain of ILT4; not shown: poly-histidine tag

[12] = biological target: T11, ILT4-His (recombinant extracellular …); assay: SPR; ratio of KD to that of 1E1(G4) (the reference itself)
[13] = biological target: T12, human ILT3 (two variants) expressed on mouse 3A9 T cells (human, UniProt Q8NHJ6 22-448); assay: flow cytometry on 3A9 T cell transfectants (two ILT3 variants)
T12 construct: whole, on cells; Two variants were tested

T1 sequence (Q8N423 other isoform, or with tags, fused parts or gaps): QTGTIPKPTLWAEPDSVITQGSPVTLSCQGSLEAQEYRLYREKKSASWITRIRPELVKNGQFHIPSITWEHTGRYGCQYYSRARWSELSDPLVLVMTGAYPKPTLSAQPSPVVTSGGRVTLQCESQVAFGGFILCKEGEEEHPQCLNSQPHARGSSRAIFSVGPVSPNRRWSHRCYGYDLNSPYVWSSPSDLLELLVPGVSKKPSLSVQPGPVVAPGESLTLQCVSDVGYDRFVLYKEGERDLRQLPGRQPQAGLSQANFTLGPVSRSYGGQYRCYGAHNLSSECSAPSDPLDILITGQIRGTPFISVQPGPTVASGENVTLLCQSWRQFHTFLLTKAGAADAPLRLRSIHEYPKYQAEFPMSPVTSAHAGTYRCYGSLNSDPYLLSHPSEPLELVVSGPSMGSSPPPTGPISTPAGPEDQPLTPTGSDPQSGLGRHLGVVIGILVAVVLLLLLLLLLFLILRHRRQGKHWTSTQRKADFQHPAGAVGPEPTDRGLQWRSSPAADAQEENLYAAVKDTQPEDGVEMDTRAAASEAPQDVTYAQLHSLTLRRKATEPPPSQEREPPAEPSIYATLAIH

- IC50 [1]: 0.374 µg/mL
- IC50 [2]: 0.04 µg/mL
B2: 3G7 (antibody, V domains shown)
VH: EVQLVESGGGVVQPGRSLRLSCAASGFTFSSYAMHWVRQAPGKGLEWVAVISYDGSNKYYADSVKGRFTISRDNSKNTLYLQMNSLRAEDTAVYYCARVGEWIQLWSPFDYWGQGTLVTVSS
VL: DIQMTQSPSSVSASVGDRVTITCRASQGISSWLAWYQQKPGKAPKFLIYAASSLQSGVPSKFSGSGSGTDFTLTISSLQPEDFATYYCQQYNSYPPTFGGGTKVEIKR
notes: hIgG4 variant in the Luminex and cell assays; also called 3G7 (hIgG4 variant)

- binding result [3]: no binding (tested: 10 ug/mL)
- binding result [4]: no binding (tested: 10 ug/mL)
- binding result [5]: no binding (tested: 10 ug/mL)
- binding result [6]: no binding (tested: 10 ug/mL)
- binding result [7]: no binding (tested: 10 ug/mL)
- binding result [8]: no binding (tested: 10 ug/mL)
- binding result [9]: no binding (tested: 10 ug/mL)
- binding result [10]: no binding (tested: 10 ug/mL)
- Kd [11]: 17 nM
- koff [11]: 0.009 s⁻¹
- KD Ratio [12]: 1
- binding result [13]: no binding (tested: 10 ug/mL)
B5: 1E1(G4) (antibody, human IgG4 S228P, lambda, V domains shown)
VH: EVQLQQWGAGLLKPSETLSLTCAVYGGSFSGYYWSWIRQPPGKGLEWIGEINHAGSTNYNPSLKSRVTISVDTSKNQFSLKLSSVTAADTAVYYCARLPTRWVTTRYFDLWGRGTLVTVSS
VL: ESVLTQPPSVSGAPGQRVTISCTGSSSNIGAGYDVHWYQQLPGTAPKLLIYGDSNRPSGVPDRFSVSKSGASASLAITGLQAEDEADYYCQSFDNSLSAYVFGGGTQLTVLG
notes: also called 1E1 VH Q1E, S54A/VL Q1E, N53D IgG4 S228P/Lambda

Further lines, the binder ahead of its results:

B1: 1E1 (hIgG4 variant) (antibody)
heavy: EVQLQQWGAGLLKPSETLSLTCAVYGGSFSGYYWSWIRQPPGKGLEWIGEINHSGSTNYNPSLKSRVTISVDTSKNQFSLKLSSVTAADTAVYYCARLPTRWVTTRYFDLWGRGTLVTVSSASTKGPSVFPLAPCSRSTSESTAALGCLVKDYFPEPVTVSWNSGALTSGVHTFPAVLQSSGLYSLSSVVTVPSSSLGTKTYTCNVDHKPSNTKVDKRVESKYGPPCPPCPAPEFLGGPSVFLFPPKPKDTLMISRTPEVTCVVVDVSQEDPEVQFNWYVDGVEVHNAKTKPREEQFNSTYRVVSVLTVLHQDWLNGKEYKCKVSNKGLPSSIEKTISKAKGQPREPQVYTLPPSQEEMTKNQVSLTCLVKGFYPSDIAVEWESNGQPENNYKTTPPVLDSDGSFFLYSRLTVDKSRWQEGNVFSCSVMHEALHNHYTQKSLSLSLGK
light: ESVLTQPPSVSGAPGQRVTISCTGSSSNIGAGYDVHWYQQLPGTAPKLLIYGNSNRPSGVPDRFSVSKSGASASLAITGLQAEDEADYYCQSFDNSLSAYVFGGGTQLTVLGQPKAAPSVTLFPPSSEELQANKATLVCLISDFYPGAVTVAWKADSSPVKAGVETTTPSKQSNNKYAASSYLSLTPEQWKSHRSYSCQVTHEGSTVEKTVAPTECS
notes: The chain assignment is uncertain
- IC50 [1]: 0.0984 µg/mL
- IC50 [2]: 0.0192 µg/mL

B3: 2C1 (antibody, V domains shown)
VH: EVQLVQSGAEVKKPGASVKVSCKVSGYTLTELSMHWVRQAPGKGLEWMGGFDPEDGETIYAQKFQGRVTMTEDTSTDTAYMELSSLRSEDTAVYYCARAGPLYTIFGVVIIPDNWFDPWGQGTLVTVSS
VL: ESVLTQPPSVSGAPGQRVTISCTGSSSNIGAGYDVHWYQQLPGTAPKLLIYGNSNRPSGVPDRFSGSKSGTSASLAITGLQAEDEADYYCQSYDSSLSGSGVVFGGGTQLIILG
notes: hIgG4 variant in the Luminex and cell assays; also called 2C1 (hIgG4 variant)
- IC50 [1]: 0.0561 µg/mL
- IC50 [2]: 0.0102 µg/mL

B4: 2A6 (antibody, V domains shown)
VH: EVQLVQSGAEVKKPGSSVKVSCKASGGTFSSYAISWVRQAPGQGLEWMGGIIPIFGTANYAQKFQGRVTITADESTSTAYMELSSLRSEDTAVYYCARYFDSSGWYKGGAFDIWGQGTMVTVSS
VL: QSVLTQPSSLSASPGASASLTCTLRSGINVDTYRIHWYQQKPGSPPQYLLRYKSDSDKHQGSGVPSRFSGSKDPSANAGILLISGLQSEDEADYYCAIWYSSTWVFGGGTQLTVLG
notes: hIgG4 variant in the Luminex and cell assays; also called 2A6 (hIgG4 variant)
- IC50 [1]: 0.233 µg/mL
- IC50 [2]: 0.0177 µg/mL
